Tests used:
[1] = target: T1, glycocalicin (the proteolytic fragment of GPIb) (human, UniProt P07359 17-506); assay: SPR, comparison of Kd with that of VWF A1 on glycocalicin
T1 construct: domain: glycocalicin (the proteolytic fragment of GPIb); Purified from human platelets; coated on the SPR sensor
Description: (§1) The sensorgrams at different concentrations were obtained and normalized by subtracting background signals from the glycocalicin surface.

[2] = target: T1, glycocalicin (the proteolytic fragment …); assay: SPR, ligand perfused over glycocalicin-coated sensor, Langmuir one-to-one fit
Description: as §1

B1: Activated protein C (APC), human plasma-derived (enzyme)
chain 1: ANSFLEELRHSSLERECIEEICDFEEAKEIFQNVDDTLAFWSKHVDGDQCLVLPLEHPCASLCCGHGTCIDGIGSFSCDCRSGWEGRFCQREVSFLNCSLDNGGCTHYCLEEVGWRRCSCAPGYKLGDDLLQCHPAVKFPCGRPWKRMEKKRSHL
chain 2: LIDGKMTRRGDSPWQVVLLDSKKKLACGAVLIHPSWVLTAAHCMDESKKLLVRLGEYDLRRWEKWELDLDIKEVFVHPNYSKSTTDNDIALLHLAQPATLSQTIVPICLPDSGLAERELNQAGQETLVTGWGYHSSREKEAKRNRTFVLNFIKIPVVPHNECSEVMSNMVSENMLCAGILGDRQDACEGDSGGPMVASFHGTWFLVGLVSWGEGCGLLHNYGVYTKVSRYLDWIHGHIRDKEAPQKSWAP
notes: mature
fold difference against the interaction of GPIb and VWF A1 [1]: ~10 fold | Kd [2]: 308 nM
